Relative affinity (percent (of IGF-I for IGF-1R)) data for one substance are collected here from patent US20130085101A1.

The target in this assay is human Type 1 IGF receptor (human) (UniProt P08069). As to the kind of experiment: competitive displacement of 125I-Tyr31-IGF-I; FLAG-tagged IGF-1R captured on anti-FLAG plate. On the technique in general: In a radioligand displacement assay an active substance lowers the binding of a labelled ligand.
human Type 1 IGF receptor (human), sequence (P08069 31-1367 limits assumed): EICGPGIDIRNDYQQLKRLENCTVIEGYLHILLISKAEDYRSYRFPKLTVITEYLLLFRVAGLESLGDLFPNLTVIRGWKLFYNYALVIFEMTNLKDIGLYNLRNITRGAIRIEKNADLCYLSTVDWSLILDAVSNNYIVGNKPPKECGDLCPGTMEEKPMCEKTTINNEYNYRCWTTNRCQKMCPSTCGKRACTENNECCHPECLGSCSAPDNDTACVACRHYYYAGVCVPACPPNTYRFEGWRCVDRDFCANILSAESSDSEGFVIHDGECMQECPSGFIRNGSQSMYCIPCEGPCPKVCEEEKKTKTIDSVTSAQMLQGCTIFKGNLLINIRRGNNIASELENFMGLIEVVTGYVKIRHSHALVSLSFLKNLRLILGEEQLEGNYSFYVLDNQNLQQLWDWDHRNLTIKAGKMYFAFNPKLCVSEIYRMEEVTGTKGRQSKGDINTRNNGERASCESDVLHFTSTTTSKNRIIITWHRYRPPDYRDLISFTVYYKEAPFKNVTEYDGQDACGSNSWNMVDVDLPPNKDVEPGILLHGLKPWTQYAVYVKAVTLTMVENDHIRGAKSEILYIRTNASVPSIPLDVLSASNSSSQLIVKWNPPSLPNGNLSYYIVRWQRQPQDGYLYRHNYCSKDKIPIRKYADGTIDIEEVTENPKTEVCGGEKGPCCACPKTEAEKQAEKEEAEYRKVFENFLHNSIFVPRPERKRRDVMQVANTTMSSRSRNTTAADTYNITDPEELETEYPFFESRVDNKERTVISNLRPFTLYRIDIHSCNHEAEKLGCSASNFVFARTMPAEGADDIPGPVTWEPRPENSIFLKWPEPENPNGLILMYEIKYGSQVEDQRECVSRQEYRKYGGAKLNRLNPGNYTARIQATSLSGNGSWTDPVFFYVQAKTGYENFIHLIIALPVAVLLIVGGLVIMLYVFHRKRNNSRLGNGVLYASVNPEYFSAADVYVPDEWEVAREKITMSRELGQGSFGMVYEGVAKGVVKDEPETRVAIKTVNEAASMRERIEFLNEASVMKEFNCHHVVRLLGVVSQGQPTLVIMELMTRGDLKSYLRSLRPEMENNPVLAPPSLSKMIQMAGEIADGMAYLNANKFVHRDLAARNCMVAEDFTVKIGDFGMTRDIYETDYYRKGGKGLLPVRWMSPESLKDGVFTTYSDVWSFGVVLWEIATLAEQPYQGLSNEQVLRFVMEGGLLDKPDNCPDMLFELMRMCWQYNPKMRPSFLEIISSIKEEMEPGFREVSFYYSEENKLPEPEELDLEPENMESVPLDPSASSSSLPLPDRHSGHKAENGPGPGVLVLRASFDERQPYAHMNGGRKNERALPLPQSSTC

Consider “lispro-insulin (ligand; other documents disagree on this pair)”, for which the relative affinity (percent (of IGF-I for IGF-1R)) stood at 0.27.
